The target of this experiment is conventional myosin (Caenorhabditis elegans) (UniProt P02566). The experiment is described as follows: ELISA. In general terms: In an ELISA, binding on a coated surface is turned into a signal by an enzyme label.
UniProt P02566, sequence (P02566 whole entry): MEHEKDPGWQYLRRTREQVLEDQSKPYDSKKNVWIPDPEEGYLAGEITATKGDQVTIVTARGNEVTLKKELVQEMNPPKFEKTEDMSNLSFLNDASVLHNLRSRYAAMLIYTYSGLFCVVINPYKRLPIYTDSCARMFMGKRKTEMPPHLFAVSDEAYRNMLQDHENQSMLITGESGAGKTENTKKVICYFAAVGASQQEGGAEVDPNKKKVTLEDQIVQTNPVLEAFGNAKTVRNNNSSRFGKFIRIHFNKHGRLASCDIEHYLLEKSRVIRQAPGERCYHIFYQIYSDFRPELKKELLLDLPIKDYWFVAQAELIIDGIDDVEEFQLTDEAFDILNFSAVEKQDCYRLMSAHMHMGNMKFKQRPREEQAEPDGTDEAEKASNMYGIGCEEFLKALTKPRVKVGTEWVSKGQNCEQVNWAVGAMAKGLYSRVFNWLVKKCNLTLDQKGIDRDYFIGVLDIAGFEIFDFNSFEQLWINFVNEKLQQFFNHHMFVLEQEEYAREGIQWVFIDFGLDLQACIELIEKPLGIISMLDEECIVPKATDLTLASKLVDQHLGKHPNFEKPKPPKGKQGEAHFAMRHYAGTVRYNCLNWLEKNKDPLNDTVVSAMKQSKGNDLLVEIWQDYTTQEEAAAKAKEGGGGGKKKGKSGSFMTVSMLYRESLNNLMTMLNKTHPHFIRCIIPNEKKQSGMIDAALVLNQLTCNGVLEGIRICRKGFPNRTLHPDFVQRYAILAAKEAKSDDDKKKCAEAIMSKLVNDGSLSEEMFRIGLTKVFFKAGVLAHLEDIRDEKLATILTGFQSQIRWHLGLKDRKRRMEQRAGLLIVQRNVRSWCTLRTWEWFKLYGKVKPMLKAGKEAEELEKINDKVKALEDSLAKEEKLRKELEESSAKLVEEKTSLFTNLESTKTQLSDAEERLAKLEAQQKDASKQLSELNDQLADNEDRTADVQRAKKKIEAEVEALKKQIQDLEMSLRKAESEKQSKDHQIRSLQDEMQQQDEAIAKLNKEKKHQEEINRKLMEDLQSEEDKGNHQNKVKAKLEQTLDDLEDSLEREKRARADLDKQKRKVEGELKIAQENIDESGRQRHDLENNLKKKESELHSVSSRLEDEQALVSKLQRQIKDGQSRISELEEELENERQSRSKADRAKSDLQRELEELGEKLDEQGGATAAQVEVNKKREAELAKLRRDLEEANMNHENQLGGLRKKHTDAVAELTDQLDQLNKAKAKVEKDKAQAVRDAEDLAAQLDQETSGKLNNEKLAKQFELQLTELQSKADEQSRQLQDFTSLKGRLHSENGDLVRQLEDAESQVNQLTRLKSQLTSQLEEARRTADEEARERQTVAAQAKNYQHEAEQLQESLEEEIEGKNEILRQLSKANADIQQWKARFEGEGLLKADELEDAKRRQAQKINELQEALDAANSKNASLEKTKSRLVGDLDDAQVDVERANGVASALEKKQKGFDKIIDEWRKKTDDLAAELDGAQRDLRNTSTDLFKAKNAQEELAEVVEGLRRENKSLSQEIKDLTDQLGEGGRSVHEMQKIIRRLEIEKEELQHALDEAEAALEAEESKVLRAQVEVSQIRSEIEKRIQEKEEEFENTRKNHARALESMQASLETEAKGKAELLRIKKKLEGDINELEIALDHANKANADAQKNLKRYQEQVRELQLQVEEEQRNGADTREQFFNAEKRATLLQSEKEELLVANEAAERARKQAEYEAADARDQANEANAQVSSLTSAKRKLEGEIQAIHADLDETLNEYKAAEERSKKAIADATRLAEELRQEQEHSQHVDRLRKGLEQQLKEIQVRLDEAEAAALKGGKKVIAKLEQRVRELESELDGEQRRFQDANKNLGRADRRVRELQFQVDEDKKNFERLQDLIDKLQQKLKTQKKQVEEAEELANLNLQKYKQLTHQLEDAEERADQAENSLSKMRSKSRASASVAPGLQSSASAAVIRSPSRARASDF

“TTN-1 fragment 11/12 Ig38-Ig39-Ig40 (from UniProt G4SLH0)” came in with a Kd of 1.5 nM.

One may read the Kd as the free concentration of one partner at which half of the binding sites on the other are occupied at equilibrium, for simple one-to-one binding. Read a low Kd as higher affinity.

For the origin of these results see paper PMC2908218.
